In paper PMC5454011 one finds stoichiometry N data, which are given here for two substances.

The target of assay [1] is MrsD-protein A fusion protein (shared helix method) (not stated | Staphylococcus aureus). Nature of the assay: crystal structure; vapour diffusion; crystals of a single fusion protein.
For assay [2], the target named is YgjG-protein A fusion protein (shared helix method) (E. coli | Staphylococcus aureus). Nature of the assay: crystal structure; vapour diffusion; complex of YgjG-protein A with ZpA963-PKA_C.
Assay [3] shares this target. Briefly: crystal structure; vapour diffusion; complex of YgjG-protein A with ZpA963-calmodulin; 5 mM CaCl2 in all buffers.

For the substance “MrsD-protein A fusion protein (shared helix method)”, in assay [1], the stoichiometry N is 12. With “YgjG-protein A fusion protein (shared helix method)”, the stoichiometry N in assay [2] and in assay [3] was 4 throughout.

What is called stoichiometry N is the number of molecules, sites or subunits per partner or assembly.
